Measured values published in the supplement of paper PMC12042874.
± gives the uncertainty stated by the source.

Assay: amyloid nucleation score (Sup35N fusion, yeast selection) (log enrichment); library NNK1; higher = more nucleation; inactive = no reads after selection
Procedure, shortened: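 Nucleation score is defined as the DiMSum log enrichment of output over input reads, with centring on the mode score of non-aggregating sequences. A minimum of 100 input reads was required for each sequence. Reads came from Illumina sequencing of plasmid inserts from psi-negative yeast expressing Sup35N fused to peptides of 20 random codons, induced with 100 μM copper sulfate for 24 hours and grown 7 days at 30°C on medium lacking adenine and uracil.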

Substance	amyloid nucleation score
NVHSYRSLRLDELVMKSMCE	2.66 ± 0.2
NVNCNRYSWMGDHSCEGRQP	-0.128 ± 0.57
NVNEDRPAGALVLEFLNRTL	1.47 ± 0.69
NVNHSPSGMARRGSHRYKNS	-0.218 ± 0.34
NVSSCDW	-1.22 ± 0.71
NVSYRSYRFVHWVNLVGSMA	inactive
NVWIYPDSMKSNQTDLG	1.26 ± 0.74
NWGAISISDRGPQKTDTAWT	-0.048 ± 0.48
NWGVIVMFTYYRSSSGNLAC	1.35 ± 0.45
NWGVSNRVVWGRVPMLSVPH	-0.284 ± 0.98
NWHAVNCRSPST	1.07 ± 0.51
NWTVFLATNGF	-0.095 ± 0.85
NWVLGVAYRRLRHKCSMYRV	0.387 ± 0.67
NWVVFRMRHRLQTSFWGCGE	0.123 ± 0.57
NYEQYLGCSNTEERSSSCTL	-0.286 ± 1.2
NYNQGRGYRSVSSNIIEGDK	1.74 ± 0.49
NYNVTNNALADR	-0.368 ± 1.7
NYRFVCEPYFYSNCPPAQWT	0.02 ± 0.59
NYTNCTSTDRI	0.907 ± 0.56
PARATMSSLRPTSNLPFFPA	-0.459 ± 1.1
PASSCAVVELGMKVGEGGIP	-0.386 ± 0.95
PAVCLCNGRMDVSKNLWLCF	7.445 ± 0.061

Substance	amyloid nucleation score
PAYRRCRPFFVHAHRFMGST	0.681 ± 0.44
PCSQPFT	-0.154 ± 0.45
PCTLGFVSSPSDG	0.524 ± 0.46
PCVQSHMCYYNMSGITKGFR	-0.332 ± 0.43
PCWWQFY	0.167 ± 0.64
PDAFKSLLLERRAWIKFVSK	1.15 ± 0.7
PDDSKFSNV	0.902 ± 0.88
PDRGEKLRRLNVWNKPCFGT	0.829 ± 0.93
PEAGGLHARYVYFVWNSAPC	2.69 ± 0.28
PERTSMGSKFTTDN	-0.382 ± 0.43
PFCSGALLARLG	0.047 ± 0.77
PFFRVVY	inactive
PFGLRYQLRIRHYTMIEELS	1.88 ± 0.29
PFHLF	0.831 ± 0.39
PFIARAFKLMLAWVLFCRAA	0.171 ± 0.75
PFRMQNDIVRDQYSVKLQWF	3.29 ± 0.17
PFSDSVARSDGCGVQRV	-0.444 ± 1.2
PGLMDLSVCKKCWNCCYTYD	-0.294 ± 0.65
PGSIYMSPGCGYIQAVRDHI	-0.205 ± 0.35
PGSKAWFGSLISCLTPWVLR	-0.563 ± 0.85
PGVPPPKRA	0.294 ± 0.66
PHGKRPGHFLKVLLAFSWRW	0.038 ± 0.56

Substance	amyloid nucleation score
PHPPAPKK	0.067 ± 0.59
PIDGTFL	-0.69 ± 0.62
PILFYDQSFLILWQINGAGG	inactive
PIWLTDKFGG	-0.24 ± 0.61
PIYVAGLGIVI	-0.308 ± 1.1
PKDLIVTTLHAWCDRHSYT	-0.49 ± 0.76
PKVWGGIHYFHFVTEYSTIS	0.309 ± 0.29
PLCEKSGCSLNFDEERQTLW	1.43 ± 0.51
PLNKSEAESLFKLLTLLDRN	-1.39 ± 0.46
PLRNGWFLRKLRS	-1.35 ± 1.3
PLTFSCSLGKGFTWYFCLNV	-0.196 ± 0.45
PLVGGRNCGKDFPSLTDTPV	-0.06 ± 0.27
PLYGASDK	-0.277 ± 0.97
PMFSSGLT	0.099 ± 0.42
PMHSLTASYNDSHFRNRGVM	inactive
PMTPTCPLTNASTCPSTDRR	-0.644 ± 0.74
PNIFCLQRSPNRP	-0.331 ± 0.31
PQPYTRNIERLAYVFTLDMP	-0.21 ± 0.27
PRCNSFNSYCFA	0.224 ± 0.29
PRIRHHSLYCVVYWFIIDRT	inactive
PRNVFMSKTNNHFQRAFSVT	0.925 ± 0.69
PSHYWNRVLLIWRLSGCVVY	-0.145 ± 0.29

Substance	amyloid nucleation score
PSLASCSRL	0.28 ± 0.41
PSMARPAARTHVDNNRWR	-0.051 ± 0.56
PSPQWYGDDNVTSRWRLLAV	0.548 ± 0.28
PSRWIAVPSMEVKVL	0.16 ± 1.1
PSSNLRFFTLNFAFLVPISS	-0.521 ± 0.64
PTSSMI	0.488 ± 1
PTYTGVLSLN	0.341 ± 0.56
PVGVKGVQMVLS	-0.226 ± 0.83
PVLKPGFL	-0.266 ± 0.5
PVMSRPAARMMGDSCHWSNR	-0.585 ± 0.8
PVVGRARRYRREAAENVVLD	0.943 ± 0.6
PWRCLM	inactive
PWTTG	0.298 ± 0.24
PWYTRLRRK	-0.338 ± 1.4
PYHEMGIYYLGGLYSK	0.743 ± 1.1
PYKIEWLSRTHTAGSYSLQP	-0.135 ± 0.44
PYLGNLNSLQGFYLS	0.176 ± 0.78
PYLNY	-0.153 ± 0.43
PYRYKSGWATTQSLRREQLD	-0.743 ± 1.3
PYSLQSTLHVRER	0.485 ± 0.35
PYVSHCGIHFFGWFSWSRAS	0.583 ± 0.46
PYYFEGGEAQTPRHSDGQWM	-0.769 ± 0.56
